In assay [1] the target is 人脑利钠肽(BNP) (human) (UniProt P16860). As to the kind of experiment: indirect ELISA, serial two-fold dilution of the antibody; coated antigen taken as BNP. In general terms: ELISA stands for enzyme-linked immunosorbent assay.
The target is the same in assay [2]. Put plainly: indirect ELISA, BNP coated at 2 μg/ml, purified antibody diluted 10^4-fold; mean value.
The target is the same in assay [3]. As to the kind of experiment: sandwich ELISA, 5G8 coated, HRP-5D11 detection; 0 pg/ml BNP (blank).
For assay [4] the target is unchanged. Put plainly: sandwich ELISA, 5G8 coated, HRP-5D11 detection; plasma sample with BNP 108 pg/ml.
The target is the same in assay [5]. As to the kind of experiment: sandwich ELISA, 5G8 coated, HRP-5D11 detection; plasma sample with BNP 287 pg/ml.
For assay [6] the target is unchanged. As to the kind of experiment: sandwich ELISA, 5G8 coated, HRP-5D11 detection; plasma sample with BNP 39.7 pg/ml.
Assay [7] shares this target. As to the kind of experiment: sandwich ELISA, 5G8 coated, HRP-5D11 detection; plasma sample with BNP 425.6 pg/ml.
Assay [8] shares this target. As to the kind of experiment: sandwich ELISA kit, 5G8 coated at 5 μg/ml, HRP-5D11 detection; 0 pg/ml BNP (blank).
For assay [9] the target is unchanged. As to the kind of experiment: sandwich ELISA, 5G8 coated, HRP-5D11 detection; plasma sample with BNP 1125.7 pg/ml.
The target is the same in assay [10]. Put plainly: sandwich ELISA, 5G8 coated, HRP-5D11 detection; plasma sample with BNP 2046.3 pg/ml.
For assay [11] the target is unchanged. Put plainly: sandwich ELISA, 5G8 coated, HRP-5D11 detection; plasma sample with BNP 3287.3 pg/ml.
For assay [12] the target is unchanged. As to the kind of experiment: sandwich ELISA kit, 5G8 coated at 5 μg/ml, HRP-5D11 detection; synthetic BNP standard 125 pg/ml.
The target is the same in assay [13]. As to the kind of experiment: sandwich ELISA kit, 5G8 coated at 5 μg/ml, HRP-5D11 detection; synthetic BNP standard 250 pg/ml.
The target is the same in assay [14]. Put plainly: sandwich ELISA kit, 5G8 coated at 5 μg/ml, HRP-5D11 detection; synthetic BNP standard 62.5 pg/ml.
Assay [15] shares this target. Put plainly: sandwich ELISA kit, 5G8 coated at 5 μg/ml, HRP-5D11 detection; synthetic BNP standard 31.25 pg/ml.
For assay [16] the target is unchanged. As to the kind of experiment: sandwich ELISA kit, 5G8 coated at 5 μg/ml, HRP-5D11 detection; synthetic BNP standard 15.625 pg/ml.
Assay [17] shares this target. Put plainly: sandwich ELISA kit, 5G8 coated at 5 μg/ml, HRP-5D11 detection; synthetic BNP standard 7.8125 pg/ml.
For assay [18] the target is unchanged. As to the kind of experiment: sandwich ELISA kit, 5G8 coated at 5 μg/ml, HRP-5D11 detection; synthetic BNP standard 3.90625 pg/ml.

UniProt P16860, sequence (P16860 103-134): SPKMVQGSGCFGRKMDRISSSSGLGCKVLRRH

B1: 兔单克隆抗体OTIR5D11 (antibody, V domains shown)
VH: QSVEESGGRLVTPGTPLTLTCTVSGFSLSSYAMNWVRQAPGKGLEWIGYIDSSGTIYYASWAKGRFTISKTSTTVDLKITSPTTEDTATYFCARGMNWGQGTLVTVS
VL: AAVLTQTPSPVSAAVGGTVTISCQSSQSVYDNNALAWYQQKPGQPPKRLIYKASTLDSGVPSRFSGSGSGTQFTLTISGVQCDDAATYYCLGEYYDDAEFGGGTEVVVK
In assay [1], B1 yielded a 效价 (ELISA titer) of 1.3e+07. In [2], the OD450 came to 2.85 OD450.

B2: 兔单克隆抗体OTIR5G8 (antibody, V domains shown)
VH: QSLEESGGRLVTPGTPLTLTCTASGFSLISYDMSWVRQAPGKGLEWIGFLGSGSSAYYASWAKGRFTISRTSTTVDLKITSPTTEDTATYFCARGTGWGQGTLVTVSS
VL: AQVLTQTPSSVSAAVGGTVTINCQASQSVYKNNWLSWFQQKPGQPLKRLTYRASTLDSGVPSRFSGSGSGTEFTLTISDVQCDDAATYYCLGSYDCSSADFGGGTEMVVK
Take B2: the OD450nm is 0.026 OD450nm in assay [3]; 0.951 OD450nm in [4]; 1.37 OD450nm in assay [5]; 0.273 OD450nm in [6]; 1.74 OD450nm in [7]; 0.01 OD450nm in assay [8]. Besides, the OD450nm in [9] was found to be 2.8 OD450nm; in [10], 3.48 OD450nm; in assay [11], 3.6 OD450nm; in [12] it was 1.11 OD450nm; in assay [13] it was 2 OD450nm; in assay [14], 0.529 OD450nm. In addition, the OD450nm in [15] is 0.224 OD450nm; in assay [16] it was 0.086 OD450nm; in [17], 0.033 OD450nm; in assay [18], 0.024 OD450nm. Besides, the 效价 (ELISA titer) in assay [1] turned out to be 6.6e+06. Further, the OD450 in assay [2] came to 2.85 OD450.

The values are drawn from patent publication CN113956355A.
